Measurements published in paper PMC5737657.

Assays:
[1] = target: T1, VapB26 antitoxin (ITC/EMSA) (Mycobacterium tuberculosis, UniProt O53778 1-71); test: EMSA
[2] = target: His6-VapB26 antitoxin (NMR) (Mycobacterium tuberculosis, UniProt O53778 1-71); test: NMR
[3] = target: T1, VapB26 antitoxin (ITC/EMSA); test: ITC
[4] = target: T1, VapB26 antitoxin (ITC/EMSA); test: ITC; remark: listed apart in the source

T1 sequence (O53778 whole entry): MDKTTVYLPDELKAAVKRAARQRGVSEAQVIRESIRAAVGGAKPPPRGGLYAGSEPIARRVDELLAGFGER
Chain of His6-VapB26 antitoxin (NMR) (O53778 whole entry): as above

B1: palindromic DNA 'b' (dsDNA)
DNA 1: TAATAGAATAATAAGTATCACTCCTTTA
DNA 2: TAAAGGAGTGATACTTATTATTCTATTA
binding result [1]: no binding

B2: palindromic DNA 'a' (dsDNA)
DNA 1: TATTTTAATAACTTAAAAGT
DNA 2: ACTTTTAAGTTATTAAAATA
binding result [1]: no binding

B3: control DNA 'X' (dsDNA)
DNA 1: GATTTTTTTTGATTTTTTT
DNA 2: AAAAAAATCAAAAAAAATC
binding result [2]: no binding | binding result [3]: no binding

B4: vapBC26 promoter DNA (19 bp) (dsDNA)
DNA 1: TTCGCGGCTACGCCGACAA
DNA 2: TTGTCGGCGTAGCCGCGAA
Kd [4]: 4.69 ± 0.81 µM
